Source: publication PMC10303687 (Protein Science : A Publication of the Protein Society, 2023)
Ends that are not written are not given here.

T1: MDM2_(D. rerio) SWIB domain (zebra fish (Danio rerio))
T1 construct: four residues left at the N-terminus after PreScission digestion, GPGS or GPMG; which of the two for this variant is in Excel File 1 in Data S1; MDM2, zebra fish, SWIB domain; Construct limits are in Excel File 1 in Data S1; also called zebra fish MDM2; source: E. coli BL21 (DE3) or BL21 (DE3) pLys, purified (Ni Sepharose or glutathione agarose, PreScission cleavage, SEC); not shown: …
T1 sequence (O42354 whole entry, looked up): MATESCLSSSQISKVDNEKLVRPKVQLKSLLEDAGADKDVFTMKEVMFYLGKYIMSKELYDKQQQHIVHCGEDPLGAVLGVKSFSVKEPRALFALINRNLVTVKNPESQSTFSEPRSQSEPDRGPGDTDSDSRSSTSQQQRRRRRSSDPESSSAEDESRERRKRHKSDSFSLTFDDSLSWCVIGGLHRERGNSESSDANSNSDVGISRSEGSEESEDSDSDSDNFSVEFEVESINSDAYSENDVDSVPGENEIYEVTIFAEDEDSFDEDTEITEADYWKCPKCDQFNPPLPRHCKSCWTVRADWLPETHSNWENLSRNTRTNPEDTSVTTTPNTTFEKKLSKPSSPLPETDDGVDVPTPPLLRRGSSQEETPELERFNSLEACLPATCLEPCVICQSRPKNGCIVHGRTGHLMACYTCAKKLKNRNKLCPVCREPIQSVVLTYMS

B1: MDM2_(G. gallus) SWIB domain (domain or fragment)
chain: SPVSASEQEALVKPKPLLLKLLKLAGAEKDTFTMKEVIFYLGQYIMSKQLYDEKEQHIVHCANDLLGDLFGVTSFSVKEHRRIYSMISRNLIAINQQDSTLAVPPEDDA

How the values were obtained:
Conditions in all cases: both partners purified
[1] = target: T2, MDM2_(H. sapiens) SWIB domain (human (Homo sapiens)); assay: stopped-flow fluorescence kinetics; 10°C, 20 mM sodium phosphate pH 7.4, 150 mM NaCl, 1 mM TCEP; Trp23 emission; MDM2 constant at 0.5–2 μM, p53TAD varied 1–10 μM for k on; k off from displacement of the 1 μM:1 μM complex by 10–20 μM dansylated human p53TAD peptide; K D = k off/k on
T2 construct: four residues left at the N-terminus after PreScission digestion, GPGS or GPMG; which of the two for this variant is in Excel File 1 in Data S1; MDM2, human, SWIB domain; the limits of the human construct itself are in Excel File 1 in Data S1; also called human MDM2; MDM2_(Human); source: E. coli BL21 (DE3) or BL21 (DE3) pLys, purified (Ni Sepharose or glutathione agarose, PreScission cleavage, …)

[2] = target: MDM2_(Reptiles/Mammals)^ML; assay: as above
[3] = target: MDM2_(Reptiles/Mammals)^AltAll; assay: as above
[4] = target: MDM2_(Fishes/Tetrapods)^ML; assay: as above
[5] = target: MDM2_(Fishes/Tetrapods)^AltAll; assay: as above
[6] = target: MDM2_(H. sapiens) SWIB domain (human (Homo sapiens)); assay: as above
[7] = target: T1, MDM2_(D. rerio) SWIB domain; assay: as above
[8] = target: MDM2_(L. camtschaticum) SWIB domain (arctic lamprey (Lethenteron …)); assay: fluorescence polarisation; displacement: FITC-labeled human p53TAD 15–26 (6 or 10 nM) and MDM2 constant, dilution series of unlabeled peptide; K D calculated from IC50; room temperature, same buffer as the kinetics
p53TAD_(G. gallus)^14–26 = target: T3, p53TAD_(G. gallus)^14–26 (chicken (Gallus gallus), acetylated); assay: stopped-flow fluorescence kinetics; 10°C, 20 mM sodium phosphate pH 7.4, 150 mM NaCl, 1 mM TCEP; Trp23 emission; MDM2 constant at 0.5–2 μM, p53TAD varied 1–10 μM for k on; k off from displacement of the 1 μM:1 μM complex by 10–20 μM dansylated human p53TAD peptide; K D = k off/k on
T3 construct: numbers count on: human p53 by alignment; also called chicken p53TAD; source: synthetic peptide, bought (Ontores Biotechnology, GL Biochem Shanghai Ltd or GeneCust)

[9] = target: T2, MDM2_(H. sapiens) SWIB domain; assay: fluorescence polarisation; displacement: FITC-labeled human p53TAD 15–26 (6 or 10 nM) and MDM2 constant, dilution series of unlabeled peptide; K D calculated from IC50; room temperature, same buffer as the kinetics

Sequence of MDM2_(L. camtschaticum) SWIB domain (arctic lamprey (Lethenteron …)) (chain, as listed by the source): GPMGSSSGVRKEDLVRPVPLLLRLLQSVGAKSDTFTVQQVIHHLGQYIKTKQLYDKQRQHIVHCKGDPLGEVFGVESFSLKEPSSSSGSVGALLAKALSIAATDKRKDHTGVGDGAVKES

Row | Binder | Kd [1] [nM] | Kd [4] [nM] | also measured
1 | SQETFSDLWNLL (not fully specified (N-terminus); also: acetylated, site not given here) [p53TAD_(Reptiles/Mammals)^ML] | 8 |  | Kd [2]: 120 nM
2 | SQETFSDLWNML (not fully specified (N-terminus); also: acetylated, site not given here) [p53TAD_(Reptiles/Mammals)^AltAll] | 9.5 |  | Kd [3]: 200 nM
3 | SQETFDFLWKSL (not fully specified (N-terminus); also: acetylated, site not given here) [p53TAD_(Bilateria)^AltAll] | 170 | 650 | 
4 | SQDTFSDLWNQL (not fully specified (N-terminus); also: acetylated, site not given here) [p53TAD1R^AltAll] | 24 | 370 | 
5 | SQETFNHLWNML (not fully specified (N-terminus); also: acetylated, site not given here) [p53TAD1R^ML] | 82 | 660 | 
6 | SQESFSDLWNLL (not fully specified (N-terminus); also: acetylated, site not given here) [p53TAD_(Fishes/Tetrapods)^AltAll] | 19 |  | Kd [5]: 98 nM
7 | DSQETFAELWEKN (not fully specified (N-terminus); also: acetylated, site not given here) [p53TAD_(D. rerio)^insertT18] |  |  | Kd [6]: 4900 nM; Kd [7]: 2300 nM
8 | CVDDFDRVWQGGV (not fully specified (N-terminus); also: acetylated, site not given here) [p53TAD_(L. camtschaticum)] |  |  | Kd [8]: 250000 nM
9 | SQETFSDLWNML (not fully specified (N-terminus); also: acetylated, site not given here) [p53TAD_(Fishes/Tetrapods)^ML] | 8 | 145 | Kd [7]: 93 nM
10 | B1 |  |  | Kd (p53TAD_(G. gallus)^14–26): 90 nM
11 | SQETFNHLWNTL (not fully specified (N-terminus); also: acetylated, site not given here) [p53TAD_(Bilateria)^ML] | 600 | 2100 | 
12 | Ac-NDVELAELPWAPEDVI [p53TAD_(I. scapularis)] |  |  | Kd [9]: 400000 nM
